Earlier results on one substance are cited in article PMC7642319.

pKd: −log10 of the molar value.

As a reminder, the pKd is the negative decadic logarithm of the Kd, by convention in mol/L.

In this data set the target is NbpSH3 SH3 (Saccharomyces cerevisiae) (UniProt Q12163).
NbpSH3 SH3 (Saccharomyces cerevisiae), sequence (Q12163 107-174): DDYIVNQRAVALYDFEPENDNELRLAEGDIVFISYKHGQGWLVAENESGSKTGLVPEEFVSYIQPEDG

Ste20, sequence (Q03497 2-939): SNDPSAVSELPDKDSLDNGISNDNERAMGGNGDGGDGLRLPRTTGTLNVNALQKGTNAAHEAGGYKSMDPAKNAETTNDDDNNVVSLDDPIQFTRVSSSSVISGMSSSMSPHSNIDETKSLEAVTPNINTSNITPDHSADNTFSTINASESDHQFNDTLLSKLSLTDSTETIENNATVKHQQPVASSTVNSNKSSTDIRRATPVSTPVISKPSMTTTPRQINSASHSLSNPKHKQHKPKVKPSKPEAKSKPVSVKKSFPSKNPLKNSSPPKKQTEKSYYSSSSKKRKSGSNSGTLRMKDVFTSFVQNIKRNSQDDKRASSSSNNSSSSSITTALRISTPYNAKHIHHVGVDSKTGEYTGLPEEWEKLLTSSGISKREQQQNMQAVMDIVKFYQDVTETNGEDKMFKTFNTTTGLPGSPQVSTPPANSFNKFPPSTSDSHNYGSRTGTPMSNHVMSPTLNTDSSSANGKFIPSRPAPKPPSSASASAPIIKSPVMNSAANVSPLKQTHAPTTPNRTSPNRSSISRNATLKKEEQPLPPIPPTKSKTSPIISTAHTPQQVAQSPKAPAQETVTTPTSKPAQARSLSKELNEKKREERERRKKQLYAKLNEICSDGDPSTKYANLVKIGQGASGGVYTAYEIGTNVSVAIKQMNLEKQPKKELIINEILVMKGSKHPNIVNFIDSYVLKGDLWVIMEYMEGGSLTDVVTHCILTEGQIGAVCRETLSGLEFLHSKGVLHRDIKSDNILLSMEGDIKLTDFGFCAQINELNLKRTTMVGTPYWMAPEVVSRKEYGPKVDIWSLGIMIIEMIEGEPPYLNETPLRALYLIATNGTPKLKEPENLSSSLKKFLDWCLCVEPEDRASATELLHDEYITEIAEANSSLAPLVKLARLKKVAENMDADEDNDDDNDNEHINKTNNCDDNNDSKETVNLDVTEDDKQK

As for Ste20 (from UniProt Q03497), the pKd is 6.70.
